One data set concerns AKT1. Briefly: AKT1 mRNA and protein knockdown in breast cancer cell lines. Particulars: basal-A, luminal, basal-B lines, fibroblasts. Type of data set: cell-based, human. The protocol:
For uptake and silencing treatment, cells were plated at low density (10,000 cells/well in 96-well plates) and treated immediately. All AsiC and siRNA treatments were performed in either OptiMEM or WIT medium. Cell viability was assessed by CellTiter-Glo (Promega) or by Trypan-Blue staining in 96-well plates.
For flow cytometry, cells were stained as previously described (Yu, F. et al (2007). let-7 Regulates Self Renewal and Tumorigenicity of Breast Cancer Cells. Cell 131, 1109-1123. ), briefly, direct immunostaining of EpCAM and AKT1 was performed using 1:50 dilutions of hAb for 30-60 minutes at 4° C. (BioLegend/BD). Cells were stained in PBS containing 0.5% FCS, 1 mM EDTA, and 25 mM HEPES. Samples were washed twice in the same buffer. Data was acquired using FACS-Canto II (BD Biosciences). Analyses were performed in triplicate and 10,000 gated events/sample were counted. All data analysis was performed using FlowJo (Treestar Inc.).
qRT-PCR analysis was performed as described (Petrocca, F., et al. (2008). E2F1-regulated microRNAs impair TGFbeta-dependent cell-cycle arrest and apoptosis in gastric cancer. Cancer Cell 13, 272-286). Briefly, total RNA was extracted with Trizol (Invitrogen) and cDNA prepared from 1000 ng total RNA using Thermoscript RT kit (Invitrogen) as per the […] (Applied Biosystems) and a BioRad C1000 Thermal Cycler (Biorad). Relative CT values were normalized to GAPDH and converted to a linear scale.

In another data set the test system is subcutaneous tumors. Briefly: Tumor accumulation after intravenous injection of fluorescent EpCAM-AsiCs. Type of data set: in vivo, nude mice. The note with it: tail vein. The text has this:
To be clinically useful, EpCAM-AsiCs need to be taken up by disseminated tumor cells. […] The EpCAM-AsiCs were detected around the injection site on day 2, but were only found within the EpCAM+ tumor on day 4.

The test system of data set [1] is IFNβ, IL-6, IP-10 and IFN-induced genes. As to the kind of experiment: Innate immune stimulation in mice. It is filed as in vivo. The note with it: 5 mg/kg sc. The protocol: Mice were injected sc with eGFP EpCAM-AsiCs (5 mg/kg, n=3) or ip with Poly(I:C) (5 or 50 mg/kg (n=2/dose). FIG. 8A: Serum samples, collected at baseline and 6 and 16 hr after treatment were assessed for IFNβ, IL-6 and IP-10 by multiplex immunoassay. * p<0.05. ** p<0.01, *** p<0.001, compared to baseline. FIG. 8B: mRNA expression of cytokine and IFN-induced genes, relative to gapdh was assayed by qRT-PCR in total splenocytes harvested 16 hr post treatment. ** p<0.01, compared to untreated (NT, n=3).
Mice were injected sc with eGFP EpCAM-AsiCs (5 mg/kg) or ip with Poly(I:C) (5 or 50 mg/kg). Serum samples, collected at baseline and 6 and 16 hr after treatment were stored at −80° C. before measuring IFNβ, IL-6 and IP-10 using the ProcartaPlex Multiplex Immunoassay (Affymetrix/eBioscience, San Diego, Calif.). Spleens, harvested at sacrifice 16 hr post treatment, were stored in RNAlater (Qiagen) before extracting RNA using TRIZOL (Invitrogen) with the gentleMACS Dissociator (MACS Miltenyi Biotec, San Diego, Calif.). cDNA was synthesized using Superscript III and random hexamers (Invitrogen) and PCR was performed using SsoFast EvaGreen Supermix and a Bio-Rad CFX96 Real-Time PCR System (Bio-Rad Laboratories, Hercules, Calif.) using the following primers: […]

The test system of data set [2] is basal-B TNBC cells (MB436, MB231). As to the kind of experiment: Tumor initiation by ex vivo treated EpCAM− basal-B cells in nude mice. The note with it: cells treated ex vivo overnight, then implanted; listed as PLK1 EpCAM-AsiCs. The source says:
EpCAM was chosen for targeting in part because EpCAM marks T-ICs and metastasis-initiating cells (M-IC).^20,22,26,27,31 To investigate whether EpCAM-AsiCs inhibit T-ICs, we compared colony and mammosphere formation (T-IC functional surrogate assays) after mock treatment, treatment with paclitaxel or with EpCAM-AsiCs against eGFP or PLK1. […] T-IC inhibition was specific, since eGFP AsiCs had no effect. […] To evaluate the effect of EpCAM-AsiCs on tumor initiation, EpCAM+MB468 cells stably expressing luciferase were treated overnight with medium or PLK1 or eGFP EpCAM-AsiCs and equal numbers of viable cells were then implanted sc in nude mice. […] Thus PLK1 EpCAM-AsiCs inhibit in vitro T-IC assays and tumor initiation selectively for EpCAM+ breast cancers.
EpCAM-AsiCs inhibit T-ICs of EpCAM+ tumors. EpCAM was chosen for targeting partly because EpCAM marks T-ICs and metastasis-initiating cells (M-IC). To investigate whether EpCAM-AsiCs inhibit T-ICs, we compared colony and mammosphere formation (T-IC functional surrogates) after mock treatment, treatment with paclitaxel or with EpCAM-AsiCs against eGFP or PLK1. […] To evaluate EpCAM-AsiC's effect on tumor initiation, viable luc+ EpCAM+ MB468 and EpCAM− MB231 cells, treated overnight with medium or PLK1 or GFP EpCAM-AsiCs, were implanted sc in nude mice. […] Thus EpCAM-AsiCs inhibit tumor initiation in EpCAM+ breast cancers.

“Also recorded” adds a separate entry of the source.

This note sets out measurements from US11180762B2, “Methods and compositions for the treatment of cancer” (CHILDREN'S MEDICAL CENTER CORPORATION, priority 2014, dated 2021).

B1: EpCAM-AsiC: EpCAM aptamer-siRNA chimera, siRNA cargo not specified at the place; 2'-fluoropyrimidines, 3'-dTdT (nucleic acid)
sense: GCGACUGGUUACCCGGUCGUUUUGAAGAAGAUCACCCUCCUUATT
antisense: UAAGGAGGGUGAUCUUCUUCATT
modifications: DNA at T, 2'-fluoro at CU, RNA at AG, backbone not given here; further chemistry not fully specified
notes: EpCAM aptamer-siRNA chimera, siRNA cargo not specified at the place; 2'-fluoropyrimidines, 3'-dTdT
Turning to B1, the “AKT1 mRNA and protein knockdown across cell lines” value in the data set with AKT1 was “uniform and selective for EpCAM+ cells”. Also, in the data set on subcutaneous tumors, the “tumor accumulation after intravenous injection” value was “did not lead to significant AsiC accumulation within subcutaneous tumors”. Moreover, the innate immune stimulation entry is “do not trigger innate immunity” in data set [1] and “does not stimulate innate immunity in mice” in data set [1] (listed as EpCAM AsiCs).

B2: PLK1 EpCAM-AsiC: EpCAM aptamer linked by U-U-U to PLK1 siRNA sense strand (SEQ ID NO: 1), annealed to antisense strand (SEQ ID NO: 2) (nucleic acid)
sense: B1 sense
antisense: UAAGGAGGGUGAUCUUCUUCATT
modifications: DNA at T, 2'-fluoro at CU, RNA at AG, backbone not given here; EpCAM aptamer fused to sense strand
As to B2, the “tumor initiation, EpCAM− basal-B cells” value in data set [2] is listed as “had no effect on basal-B TNBC tumor initiation; also recorded: only in EpCAM+ tumors”.
